Tested on: Saccharomyces cerevisiae
Assay: transcriptional activation domain activity (GFP:mCherry ratio, weighted mean of sorted bins, harmonized to initial dataset scale) (arbitrary fluorescence ratio units); higher = stronger transcriptional activation
Conditions: beta-estradiol 1 µM; induction time 4 h
How it was run: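 Sorting into 8 bins by GFP:mCherry ratio followed a 4-hour hold at 30 °C after cultures were diluted 1:5 into SC with 1 uM beta-estradiol. The yeast diploids carried a GFP reporter and had barcoded protein tiles, fused to an estradiol-inducible synthetic transcription factor, integrated at URA3. Barcodes were then sequenced, and tiles with under 50 reads were removed. Activation activity is the read-weighted mean of bin median fluorescence, averaged across barcodes and linearly mapped onto the initial dataset scale.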

| Sequence | transcriptional activation domain activity |
| --- | --- |
| AASFISRTMLVLARQKFYNWYGVPQRRLYRDQSVHGTTKKRTWLIKLLSPLLF | 47200 |
| RGERGQGAGGRGEGEGRGAGGERERRGGEREEGRGRERDERQGGKRERERGQG | 21800 |
| SHSGVSRSGKRDASRSTSASGLGRNNGNASASGNGSRKGKRRSEGAGGRGKRV | 13500 |
| KWIIPTPFASHAFNPCDGFLQSLPYHIYVYMIPMHKYLYLLMFVLVNFWTVMI | 49700 |
| MWCTRWFLPLLLLPLPTAPPFFLALFLISLTLHSKPCFYCILLLTTLFLTSCY | 45300 |
| RIVIPIRLVLLVFVTMASYLLFAMIIYACQNEWLYPFLSWDQGPVAVLWYLLL | 42800 |
| MPPTSSSVSRSSFSRGRTSSCRPRYSSSRPTSSSTSGSSRRTARSSPSASPRS | 11000 |
| MFCLRSWLPLLFIPTNASPIFIFLFFICTYFLNRPCVYCSFLLLILFASSCHW | 48400 |
| SQKNGTSAANALVYGGFSHTVTQHTIKDVSIDGTWLEEEIDGFKSDTLGFHVD | 72800 |
| MGMEHLAQPDQPNKKKRRRQALSCTECKRRKIKCDRKQPCSPCTRRGEQAKCQ | 29900 |
| MARQPSAPNAASDRGAATTTPRKPTTRSRTGCSACRKRRTKCDEARPACGHCV | 44600 |
| VYVDNDGLPARSQWVLMYERMGEQGGMTLAARFVMFVDFLVQMVRLLSRSPLY | 34600 |
| EDAGDDAAPSAKKANVSKKRKKADESDGENDKPVKTPKTKLKLTTKTPKEPSA | 36100 |
| SDDDEPPAKAAPKPKPRPVGKAKAKAREPEPESDGEVSAVQKKKKRKIGIFQS | 37600 |
| RDESLRTKDKSVSRSRSRSRARDEETDDRRERSRSADRESRREGRGRSATPQG | 34800 |
| MSSLFFLRSPCFYLYLYHYLVSFLIFMAFCLVCCLPLLFHFWVFCLLLCFRIY | 63600 |
| ILVYLSSVKLRNYRGNTYSFIHLTPWVPLDLLKYACDFLGLLSGFNLLPLYFQ | 56300 |
| GKGIGGFNCVAASLGVVQVGMQWSCFAVILLLFLIYFPSASSLGSPATTPTGT | 36400 |
| MILIVFSLLLSFPMFLERVLFFPLSFLFFFSPSFCLSYTQPSPLTMPFFSYFC | 68300 |
| KNDCCFCYALGLFIRMDCFLRIFVCLCFDVGLYAIEFDLCSLLLACIHVHFSH | 36300 |
| ATDCAVKALRALQILMDHPTFPYDACLDLWHRCWPWMHFVHTFWKYLPGFVTG | 57200 |

| Sequence | transcriptional activation domain activity |
| --- | --- |
| VSYVLFVLMHRSTQPLVQHLLFKLRWLPFPFFITKHYYSWIISAYSFIGYRNL | 56400 |
| SGDADEDGNGHGTHCSGTIAGKKYGVAKKAHVYAVKVLRSNGSGSMSDVVKGV | 9640 |
| PAAAAQAPPAAGGKKEEAAAAEVPQAEAAAEGAGSPEGEGKDAQAEAAAPAEG | 16800 |
| TPECLTKINWNVLRLSSYLSSVATSHFLELSTIIGITLIQLIWLLHPPCLLFL | 45400 |
| LLHPDKREPIDEDIWTVIPRGIRCEMMTFDLHIWLRRLVECLYKCLLENLVPT | 46600 |
| LRYALDLYRSLRAKVWENSPLILRQLEGIGKMILIISLLRKLIGVIIQLMYCF | 55500 |
| FFFFFFFFFFFFFLFLLLSLFFPYLICHRLHLKTQLPHICFIFRLLAASCLST | 46400 |
| MHSGPSFSCFFSVFPSFIFGLSTSSTLYIYFFFLLLDQLFVPSFFALLLLFLP | 41400 |
| ILVMWTVISCPVFSFPDRGHGSMLFFLFKLCLVMLLTYLVTMLWFLCVFSIVV | 52100 |
| MSFFFFFIRYFPWLFDFWLLAFVFYCLLIPRLNIFFLSFSCFNFLVFSLLLVG | 56000 |
| RDRGDSHRRHHHRSGSDDERRHRSDRRAREKDGDRSRSHRSSRHADEREERDE | 17600 |
| LLEMGLRWTLDAFGDSARMAGHIFHCLSNLEMTLPSYMYIQLLRSILKLPKTV | 31000 |
| WIIPTPFGSHAFHPVDGYFQSVPYHLFIFIFPLHRVLYLTLFVLVNFWSIFIH | 61100 |
| TIVLSAMQVGLATQFLVDDYAFSMASYVFSVFAILAPLSAIAAILFVLVLLFA | 49900 |
| FDTLLSFLLFSLSLIFFLSFLPLFCQRYFFSSFLNLVFLAFWLCCYCCCCSRG | 31700 |
| MSSTPNCARQQPNRSESARNRTKDNCAACREKRLKCDKDGGRKTCSSDSQPSS | 37400 |
| ALKILVLLIFLMDTLHTYGVISYQWGLFLFCHHNATSACLSVLPWEIFMAVVL | 56300 |
| MFYNFLFSLFSLFHMLLLHQSLVSLSYPFFLPGNFPLSVTIFIIAPLSLFWFI | 48900 |
| GEKAEGANGEGSGAEGSRRRPSGRGRGRGRGRGGRGGRGGRATNEAGDEKKEG | 22500 |
| ENDGEEVEGEEKESSQGAGGLMGRFTKETDDVRLGASQNIGLVLQYLTSFIAC | 17000 |
| VYYFWVRIFVFSFRSTCFCIFLFYYLYLFFLFIFLYLTSSFSSFHHLSLLLVV | 57800 |

| Sequence | transcriptional activation domain activity |
| --- | --- |
| VRVVQLSLSLFIARFVTALVLPFIAIVTKWLVIGRYRPGIFPLWGTYYLRWWF | 45000 |
| LLYLLLLLRKVSVMLCFIDLLIFGIFLCFLSLLLFLSLFFLFLFLLVFSEEFF | 37600 |
| SLAFPLFIIARYFPLGLIAIDFIQLAAPTHSQVTCTVLFRLYILLLMIITFST | 40900 |
| MIVFLFWVIGINLDCNCWFSLFLILLMRVMDLMSYGWIIEVFFFLLNFYYLLF | 53700 |
| EDEAQGEEGEKAKKSRKRKRDEAAEGGKQKKEKAPPKPRAKKGSAEPKPKKAA | 25900 |
| GNIHFTLRMALSDPDMTTVRPVLDLLFGLTHFFFVVNTGLFDLIQSCFKIIEA | 55100 |
| MYFASYIFISFFSLFISIIHPFKIYYILLYTHHIIISIQLLLPFHFLTSIILS | 80300 |
| VDNQFLSTRSIVTEACRKRGIYLTWIDSDPDILNYLQLSTFQFIVLLMLPLTP | 42900 |
| MSIAWLCYSSALCQGLRNTIFPSLNIFLMDPLSEWTARQWLFYLVWLLTIVWK | 52800 |
| LALQRMDWHSVFRKTFYESRSWLHLLTNFSRIWIMHISAFWYYMAANIDFFYR | 56400 |
| RGLVLCLCLCITLKTAFHMIAVYQPLHPLFTSIDLGHLQPQPFCKLGMILGIM | 65900 |
| MDSRPGSFATGVFRAQPVDNTPRKIQKRNRPPVSCLLCRTRKVKCNRQQPCER | 33500 |
| MLFARLHPVADETLIPFFCFWPSRLFVVLLVSFLHLIILFLSCFFFNCFLLFF | 50300 |
| CLVIRGRSRFQHGPFWLGSFGLLCNIVLLSWTLFSLVFFSFPFVKPIIPGKPF | 76900 |
| MKRVYKLNTCLFFYNSYNPFHIYFYSFIHSNMPAMYHLFSILLLWLNCLSLVQ | 44500 |
| MCYQGQHVYLNHEVFAQSLLAVGFARCQVRLMWVAGIRPIVRVSTNNFLGSIR | 44800 |
| MRRLGWVGVSGLVSFLFTSFFFLVSFFLLLLLLLLTHFSFLFFFFAFTFILMM | 45500 |
| YLIIISFFSFSFYLLIHMQYINPKGHPPLKFYQLIIWRWCATMCAYFFLSLAY | 62000 |
| KYLFQSQRFGGHFFQIQVVLRDIEKYLEEVHQFMLQVNIMVLGFHAMLDKAFQ | 55900 |
| CGSQSPALLYPYYQIDTIVPCIRDLESYYKSAGFPTTTLIWPLFLHLMILFVV | 75400 |
| GHGKLGYFTGKAVASIYRFILSSLHFASIFILLGKPTSSFGFIYLVIMLQFWC | 50200 |

| Sequence | transcriptional activation domain activity |
| --- | --- |
| MEVGSAAVAGPVLAAAHVPRKRRRPALSCEQCRKRKVKCDRTSPCGQCTRSKG | 32100 |
| MAKKASGSAEKKGGDKADKKGKAKAKADDSDVEDKGSKGKGALKAATAVNVRH | 9660 |
| GGGGDNAAAGEKNSSSSSNSHHNSSKKSGRGGRSNSESRNEGGGRSTAGGGSA | 31800 |
| MLHPTIVYPFITHLLLLILLFSLLPRFSYDADMDFLLVFSSFVLLLCFPWFED | 40400 |
| SKRAQDPLRIWDAMIDVHVHLPAGAQKKDGPSAGVAMVIVCAIVSLLTGKCVP | 46600 |
| DSHHHDELGSEITLADNKFSYLPPTLEELMEEQDCNNGRSFKNFMFSNDTGID | 54500 |
| SDNQPDFVDFQELLDNDTLGNDLLETTAVLKEFELLHDDSVSATATSNEIDLS | 115000 |
| TTAETTAPAAETDAAAKVEEAKPAAATTEAKPAAAAPKPAADKKVKRSSTILQ | 10600 |
| LSGLFSGYLCLFVSGFHIVMTEGILVIGYLVSPVFLFFFPLPFIFVMFPLHFV | 76700 |
| MYCFIILYMYILLLFFSRSVYFSLFFFFFCLHFYSIFFFFICSLFIYLFIYLF | 63500 |
| MPWFIVCPLIFCSFGPFDALLSVLFFFYEHHFLLVIFPLTLIMQFSFLLSYFS | 53100 |
| ALLCLCWAPEPRGLLALGIGCLVFLFLYFYPCCFFFFFFYSYLCFCTVVLFFP | 53300 |
| MGIIIVVCVFFFLTGFLFTLVFLLSLWSLFVFFYFINFSFPLSFALLLLIFFL | 40500 |
| KLWKKPIIVVMAAMPIIMDGVGNLLIPYLHSFVLHSLLFCHKKVAFLMLLLIF | 59100 |
| FAEQGWQVVYYSWQWSLGVYIHYYLPSSVWAGYPHISLPVVIKVYYLMQISLY | 37900 |
| KYLSTCLKSCNTQLLDGILNTFARIFLSLGHLVEIMPELGTSILFQTYLFALQ | 52900 |
| LFSLCFSEICTLFLLLMCQGIDLLDPGVRLINWKVSLWLLLATILVFIPLSYS | 43900 |
| STIHNLFEVVLLPDLCGFCCFSMRFVVLVDLVGTLTLPVTVVYLIYLIYVIAS | 54400 |
| KFPLFMLIAQGSFAFILWCFPFRSFLFIWALLMFTHTPLPSLLLLASCFSFSF | 60100 |
| NNLLELITDIIIALDMNFVNCMTCVDDDEKALMTLRICEYFIDRLVRTIMVAT | 51300 |
